Values belong to the molecule of their own block, whether it stands above or below them.
What was measured:
[1] = molecular target: human RANK-L (Receptor Activator of Nuclear factor Kappa B Ligand), soluble (human) (UniProt O14788); assay: cell-based or functional assay
[2] = molecular target: T1, human RANK-L (Receptor Activator of Nuclear factor Kappa B Ligand), soluble (human, UniProt O14788 140-317, limits assumed); assay: SPR BIACORE 3000, RANK-L on CM5 chip, 100 nM Nanobody
T1 construct: Used plain, biotinylated or ALEXA647-labeled; also called hRANK-L; sRANK-L
T1 sequence (looked up): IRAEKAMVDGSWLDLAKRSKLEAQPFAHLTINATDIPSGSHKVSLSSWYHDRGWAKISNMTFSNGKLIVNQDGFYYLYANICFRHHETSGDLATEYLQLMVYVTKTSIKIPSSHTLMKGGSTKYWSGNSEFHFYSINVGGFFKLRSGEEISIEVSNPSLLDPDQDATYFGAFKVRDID

[3] = molecular target: T1, human RANK-L (Receptor Activator of …); assay: AlphaScreen, biotinylated RANK-L vs RANK-huFc beads
[4] = molecular target: T1, human RANK-L (Receptor Activator of …); assay: SPR BIACORE 3000, RANK-L on CM5 chip, 100 nM Nanobody; indicative, one concentration

IC50, NF-kappaB reporter gene assay (luciferase, HEK293T, 300 ng/ml human RANK-L) [1]: 6.03 nM
Molecule: osteoprotegerin (from UniProt O00300 22-401) (receptor)

koff [2]: 0.000127 s⁻¹ | IC50 [3]: 0.274 nM | Kd [4]: 0.288 nM | kon [4]: 441000 M⁻¹ s⁻¹
B1: RANKL18hum3 (VHH)
VHH: EVQLVESGGGLVQPGGSLRLSCAASGRTFSRSAMGWFRQAPGKGREFVGFITGSGGTTYYADSVKGRFTISRDNAQNPVYLQMNSLRPEDTAVYYCGVYRRTYISSTYSESSEYDYWGQGTLVTVSS

— patent US20170096490A1 (published 2017)
